Results published in patent publication US20170304444A1 (Dana-Farber, published 2017).
Positions count from the first letter of the chain named.

B1: mAb #14-182 (antibody, V domains shown)
VH: QVQLVQSGAEVKQPGSSVKVSCKASGYTFTGYYMHWVRQAPGEGLEWLGWINPHSGGTNYAQKFQGRVTITADKSTSTAYMELSSLRSEDTAVYYCAREIVVVTAPAAAAMDVWGQGTLVTVSS
VL: QSVLTQPPSASGSPGQSVTISCTGSSSDVAIYDRVSWYQQPPGTAPKLILYDVHDRPSGVPDRFSGSKSGNTASLTISGLQAEDEADYYCSSYTTSGTFVFGSGTKVTVLG
B2: mAb 3-167 (antibody, V domains shown)
VH: EVQLVQSGSELKKPGASVKVSCKASGYTFTGYYMHWVRQAPGQGLEWMGWINPNSGGTNYAQKFQGRVTVTTDTSTSTAYMELRSLRSDDTAVYYCAREGVHSDAFDVWGQGTTVTVSS
VL: ETTLTQSPATLSVSPGERATLSCRASQSVYTNLAWYQQKPGQAPSLLIYGASSRATGIPDRFSGSGSGTDFTLTISRLEPEDFAVYYCQQYGSSHFTFGPGTKVDIK
B3: mAb #12-46 (antibody, V domains shown)
VH: EVQLVQSGAEVKKPGASVKVSCKASGYTFTGYYMHWVRQAPGQGLEWMGWINPKTGDTNYAQKFQGRVALSRDTSFNTAYMDLSSLRSDDTAVYYCAREGLSTSSPLDYWGQGTLVTVSS
VL: QPGLTQPPSVSVAPGQSAKITCGENELATNIVHWYQQKPGQAPVLVIYHDNDRPSGIPERFSGSNAGNTATLTISRVEAGDEADFYCQLWDSASDQVVFGGGTTLTVLG
B4: mAb #7-192 (antibody, V domains shown)
VH: EVQLVESGAEVKKPGASVKVSCKTSGYTFTDHYIHWVRQAPGQGLEWMGWINPSSGGTEYAQKFQGRVTMTRDTPISTAYMDLSGLRSDDTAVYYCARETIGGWNALDVWGQGTLVTVSS
VL: MPVLTQPPSVSVAPGQTARITCGGHKIGTKSVHWYQQKPGQAPVLVVYDDRDRPSGIPERFSGSNSGGTATLTISRVEAGDEADYYCQVWDSNSDHVVFGGGTKLTVLS
B5: mAb #5-139 (antibody, V domains shown)
VH: B4 VH with E6Q, L115T
VL: QSVLTQPPSASGSPGQRVTMSCSGSSSTIGRHSVNWYQQLPGTAPKLLIYANNQRPSGVPGRFSASKSDTSASLAISGLRSEDEANYYCAAWDDSLSGVLFGGGTKVTVLG
B6: mAb #17-60 (antibody, V domains shown)
VH: B4 VH
VL: QPVLTQPPSASGTPGQRVTISCSGSSSNIGINTVNWYQQLPRTPPKLLIYTNNQRPSGVPDRFSGSKSDTSASLAISGLQSEDEADYYCAAWDDTLNGPLFGGGTKVTVLG
B7: mAb #1-81 (antibody, V domains shown)
VH: B4 VH
VL: B6 VL
notes: Found as scFv by phage display
B8: mAb #13-169 (antibody, V domains shown)
VH: EVQLVQSGAEVKRPGASLKVSCKASGYTFTSHYIHWVRQAPGQGLEWMGWINTGNGDTRYSQRFQGRVTVTRDTSASTVYMELSSLRSEDTAVYYCARESSSSWFVAFDVWGQGTTVTVSS
VL: QPVLTQPPSVSLAPGQTARITCSEKNIRSKRVHWYQQKPGQAPVLVMYSDNGRRSGIPDRFSGSNSGNTATLTITRVEAGDEGDFYCQVWDPITDQVVFGGGTKLTVLG
B9: mAb #15-68 (antibody, V domains shown)
VH: EVQLVQSGAEVKKPGASVNVSCKASGYTFTGYYMHWVRQAPGQGLEWMGWINPNSGGTNYAQKFQGRVTVTTDTSNSTAYMELNRLKSDDTAVYYCAREGSGDLDSLYMDVWGKGTMVTVSS
VL: SYELTQPPSVSVAPGQTARITCGANNIGSKSVHWYQQKPGQAPVLVVYDDSDRPSGIPERFSGSNSGNTATLTITRVEAGDEADYYCQLWDGGSDVVFGGGTKLTVLG
B10: mAb #11-126 (antibody, V domains shown)
VH: EVQLVESGAEVKKPGASVKVSCKASGYTFTGYYMHWVRQAPGQGLEWLGWVNPHSGGTNYAQKFQGRVTMTRDTSISTAYMELSRLRSDDTAVYYCARETDISANYHFDYWGQGTLVTVSS
VL: QSALTQPASVSGSPGQSITISCTGTSSDVGSYNAVSWYQHHPGKAPKLMIYEVSKRPSGVSNRFSGSKSGNTASLTISGLRAEDEADYYCATWDDSLKGPVFGGGTKLTVLG
B11: mAb #10-116 (antibody, V domains shown)
VH: EVQLVQSGADVKKPGASVKVSCKASGYTFTGYYIHWVRQAPGQGLEWMGWINPNSGGTNYAQKFQGRVTMTRDTSISTAYMELSRLRSDDTAVYFCVREVKDYYYYMDVWGRGTTVTVSS
VL: NFMLTQPHSVSESPGKTVTISCTRSSGSIASNSVQWYLQRPGSAPTTLIFDNKQRPSGVPDRFSGSIDSSSNSASLSISGLTTEDEADYFCQSYDDSEQVVFGGGTKLTVLS

Molecular target: T1, glucocorticoid-induced tumor necrosis factor receptor (GITR) (human, UniProt Q9Y5U5 26-241)
T1 chain: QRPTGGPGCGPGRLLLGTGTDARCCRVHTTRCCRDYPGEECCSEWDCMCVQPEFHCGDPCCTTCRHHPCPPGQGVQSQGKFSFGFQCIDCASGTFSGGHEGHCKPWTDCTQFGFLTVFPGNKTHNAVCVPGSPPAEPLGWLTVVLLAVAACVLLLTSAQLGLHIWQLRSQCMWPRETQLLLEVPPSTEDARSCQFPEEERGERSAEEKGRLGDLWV
Assay: BLI

Question: B1 was tested. Which Kd did it give?
Answer: 1.82 nM

Question: Which Kd does the source give for B2 here?
Answer: 0.855 nM

Question: How did the Kd turn out when B3 was run?
Answer: 5.07 nM

Question: Which Kd does the source give for B4 here?
Answer: 3.13 nM

Question: How did the Kd turn out when B5 was run?
Answer: 0.42 nM

Question: For B6, which Kd is on record?
Answer: 1.14 nM

Question: With B7 as the binder, how does the Kd read?
Answer: 1.66 nM

Question: For B8, which Kd is on record?
Answer: 3.21 nM

Question: How did the Kd turn out when B9 was run?
Answer: 3.81 nM

Question: With B10 as the binder, how does the Kd read?
Answer: 2.8 nM

Question: B11 was tested. Which Kd did it give?
Answer: 4.77 nM

molecular target: T2, glucocorticoid-induced tumor necrosis factor receptor (GITR) (human, UniProt Q9Y5U5 26-241); assay: flow cytometry on GITR-expressing 293T cells, FITC anti-human Fc detection
T2 construct: whole, on cells; also called GITR expressing 293T cells
T2 sequence (looked up): T1 chain

Question: Does B1 bind?
Answer: binds

Question: Does B2 bind?
Answer: binds

Question: Does B3 bind?
Answer: binds

Question: Does B4 bind?
Answer: binds

Question: Does B5 bind?
Answer: binds

Question: Does B7 bind?
Answer: binds

Question: Does B8 bind?
Answer: binds

Question: Does B10 bind?
Answer: binds

Question: Does B11 bind?
Answer: binds

Molecular target: T1, glucocorticoid-induced tumor necrosis …
Assay: flow cytometry, GITR-expressing 293T cells

Question: Which EC50 does the source give for B1 here?
Answer: 20.5 nM

Question: Which EC50 does the source give for B2 here?
Answer: 28.2 nM

Question: With B3 as the binder, how does the EC50 read?
Answer: 72.4 nM

Question: Which EC50 does the source give for B4 here?
Answer: 19.3 nM

Question: B5 was tested. Which EC50 did it give?
Answer: 16.8 nM

Question: Which EC50 does the source give for B6 here?
Answer: 15.1 nM

Question: B7 was tested. Which EC50 did it give?
Answer: 22.4 nM

Question: For B8, which EC50 is on record?
Answer: 47 nM

Question: B9 was tested. Which EC50 did it give?
Answer: 26.5 nM

Question: B10 was tested. Which EC50 did it give?
Answer: 13 nM

Question: With B11 as the binder, how does the EC50 read?
Answer: 28.3 nM
